In the test the target is cation independent mannose-6-phosphate receptor (CIMPR). In words: immobilized CIMPR affinity column, elution with free M6P.

In patent US20190358302A1 one finds % bound to CIMPR column data, which are given here for one substance.

Substance “Fabrazyme (agalsidase beta) (from UniProt P06280 32-429) (enzyme)” had a % bound to CIMPR column of 90%.
